Laboratory results reported in patent publication US20180265573A1 (ICAHN SCHOOL OF MEDICINE AT MOUNT SINAI, published 2018).

Experiments:
[1] = target: baculovirus-expressed hemagglutinin of influenza virus A/California/04/09 (H1) (influenza A virus A/California/04/09 …)
[2] = target: baculovirus-expressed hemagglutinin of influenza virus A/Solomon Islands/06 (H1) (influenza A virus A/Solomon Islands/06 …)
[3] = target: hemagglutinin of influenza A virus A/Puerto Rico/8/34 (influenza A virus A/Puerto Rico/8/34, UniProt P03452 18-565); experiment: cell-based or functional assay
[4] = target: T1, hemagglutinin of influenza A virus A/Hong Kong/1/68 (H3) (influenza A virus A/Hong Kong/1/68 (H3), UniProt Q91MA7 17-566); experiment: immunofluorescence on infected, fixed MDCK cells
T1 construct: whole, on cells; also called HK68 (H3)

B1: monoclonal antibody GG3 (antibody, V domains shown)
VH: QIQLVQSGPELKKPGETVKISCKASGYTFTNYGMNWVKQAPGKGLKWMGWINIYSGESTYVDDFTGRFAFSLETSASTAYLQINNLKNEDMATYFCARSGDTMITAGRSFFAMDYWGQGTSVTVSS
VL: DIQMTQSPSSLSASLGERVSLTCRASQEISGYLSWLQQKPDGTIKRLIYAASTLDSGVPKRFSGSRSGSDYSLSISSLESEDFADYYCLQYANYPWSFGGGTKLEIK
notes: also called mAb GG3; Mab GG3
In the case of B1, the “EC50 (read off the curve)” value [1] is reported as ~0.01 µg/mL, the “EC50 (read off the curve)” value [2] is reported as ~0.007 µg/mL and the “IC50 (read off the curve), plaque reduction neutralization assay” value [3] is reported as ~1 µg/mL. B1: no binding (tested: 5 µg/mL) [4].
